Results as given in the supplement of paper PMC6757056.
± gives the standard deviation of the averaged measurements.

B1: library; a variant is named by its letters at N, in order (parent)
chain: GCUGUCACCGGUGUAUUACCCUAGUGGUCGACCGGUCUGAUGAGUCUNNNNNNAGACGAAACAGC

How the values were obtained:
hypoxanthine [1] = variants of: B1; experiment: FACS-Seq fitted mean relative fluorescence mCherry/BFP without ligand (log10 relative fluorescence); ligand: hypoxanthine (xanthine aptamer); higher = higher reporter protein expression; details: HEK293T, ligand present: no
Summary of the method: (§1)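 Lentivirally transduced HEK293T libraries carried an mCherry reporter with the ribozyme switch and an EF1α-BFP marker. Transduced cells were enriched, then incubated with or without ligand for 48 h and sorted into 6 bins by mCherry/BFP. Genomic DNA from each bin was PCR-amplified, barcoded and sequenced on MiSeq. Fluorescence was the fitted normal mean of log10(mCherry/BFP) bin counts, scaled to five spiked-in control ribozymes.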

hypoxanthine [2] = variants of: B1; experiment: normalized RNA/DNA level with ligand (relative to sTRSVctl = 100) (log10 (% of sTRSVctl)); ligand: hypoxanthine (xanthine aptamer); higher = less ribozyme self-cleavage, higher mRNA level; details: ligand concentration (+) RNA-Seq: 5 mM, HEK293T, reporter: mCherry (pCS4076), ligand present: yes
Summary of the method: (§2)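 Total RNA, extracted with EDTA 72 h after HEK293T cells were transfected with 4 µg per 6-well well of reporter-linked ribozyme switch library plasmids, was reverse-transcribed, amplified, barcoded and sequenced. Ligand, if used, was added 1 h before transfection. RNA level was derived from RNA reads divided by DNA reads and normalized to a spiked-in non-cleaving sequence or to the top sequences. This was multiplied by 100 and log10-transformed, with the top set of 25 sequences and a ≥100 DNA read minimum.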

hypoxanthine [3] = variants of: B1; experiment: normalized RNA/DNA level without ligand (relative to sTRSVctl = 100) (log10 (% of sTRSVctl)); ligand: hypoxanthine (xanthine aptamer); higher = less ribozyme self-cleavage, higher mRNA level; details: HEK293T, reporter: mCherry (pCS4076), ligand present: no
Summary of the method: as §2

hypoxanthine [4] = variants of: B1; experiment: FACS-Seq fitted mean relative fluorescence mCherry/BFP with ligand (log10 relative fluorescence); ligand: hypoxanthine (xanthine aptamer); ligand concentration (+) FACS-Seq: 5 mM; higher = higher reporter protein expression; details: HEK293T, ligand present: yes
Summary of the method: as §1

Variant	FACS-Seq fitted mean (log10) (hypoxanthine [1])	normalized RNA/DNA level with ligand (log10) (hypoxanthine [2])	normalized RNA/DNA level without ligand (log10) (hypoxanthine [3])	FACS-Seq fitted mean (log10) (hypoxanthine [4])
AGUUGG	-0.154 ± 0.12	1.8 ± 0.037	1.338 ± 0.0021	0.403 ± 0.075
GUACCG	0.26 ± 0.029	1.903 ± 0.0046	1.624 ± 0.0025	0.511 ± 0.015
GUACCA	0.512 ± 0.037	1.944 ± 0.012	1.867 ± 0.006	0.532 ± 0.03
AGUAAA	0.625 ± 0.22	1.891 ± 0.011	1.73 ± 0.063	0.59 ± 0.032
AGUAAU	0.85054 ± 0.00034	1.88 ± 0.03	1.85 ± 0.056	0.78 ± 0.058
GGUGCG	0.452 ± 0.027	1.91 ± 0.056	1.58 ± 0.094	0.656 ± 0.018
GGUGCU	0.444 ± 0.03	2.022 ± 0.015	1.977 ± 0.015	0.475 ± 0.041
GGUGCC	0.798 ± 0.026	2.009 ± 0.0084	1.97 ± 0.04	0.76 ± 0.035
GGUUUG	0.0895 ± 0.042	1.9 ± 0.019	1.614 ± 0.0086	0.485 ± 0.021
GGUUUU	0.313 ± 0.029	1.93 ± 0.053	1.894 ± 0.0067	0.378 ± 0.028
GGUUUA	0.149 ± 0.053	1.96 ± 0.024	1.87 ± 0.034	0.3294 ± 0.00074
CUAAGC	0.0548 ± 0.024	1.94 ± 0.048	1.851 ± 0.0075	0.039 ± 0.019
CUAAGU	0.447 ± 0.0085	1.93 ± 0.023	1.86 ± 0.031	0.262 ± 0.12
GGUAAA	0.652 ± 0.01	1.9 ± 0.022	1.69 ± 0.007	0.581 ± 0.029
GGUAAU	0.123 ± 0.061	1.918 ± 0.019	1.79 ± 0.035	0.314 ± 0.036
GGUAAC	0.447 ± 0.063	1.96 ± 0.067	1.82 ± 0.031	0.455 ± 0.018
GGUAAG	0.176 ± 0.027	1.744 ± 0.013	1.25 ± 0.054	0.6778 ± 0.0029
GGUUGC	-0.0647 ± 0.067	1.92 ± 0.037	1.52 ± 0.035	0.345 ± 0.043
GGUUGG	-0.0305 ± 0.021	1.83 ± 0.074	1.27 ± 0.014	0.558 ± 0.021
CGUUUC	0.944 ± 0.041	1.95 ± 0.058	1.908 ± 0.0084	0.812 ± 0.15
CGUUAA	0.0819 ± 0.044	1.89 ± 0.019	1.62 ± 0.049	0.118 ± 0.02
CGGUUC	0.133 ± 0.2	1.964 ± 0.01	1.79 ± 0.066	0.211 ± 0.024
AUAACA	0.00278 ± 0.0073	1.9 ± 0.041	1.83 ± 0.031	0.0853 ± 0.19
GGUGGC	0.217 ± 0.017	1.89 ± 0.039	1.57 ± 0.025	0.392 ± 0.007

Variant	FACS-Seq fitted mean (log10) (hypoxanthine [1])	normalized RNA/DNA level with ligand (log10) (hypoxanthine [2])	normalized RNA/DNA level without ligand (log10) (hypoxanthine [3])	FACS-Seq fitted mean (log10) (hypoxanthine [4])
GGUGGA	0.261 ± 0.029	1.951 ± 0.0027	1.71 ± 0.026	0.43 ± 0.028
UUAAAU	0.322 ± 0.05	1.959 ± 0.016	1.83 ± 0.024	0.322 ± 0.013
UUAAAA	0.501 ± 0.012	1.966 ± 0.016	1.795 ± 0.0061	0.388 ± 0.15
UUAAAG	0.207 ± 0.12	1.886 ± 0.0075	1.6908 ± 0.00025	0.201 ± 0.0094
UGUACA	0.848 ± 0.044	1.919 ± 0.018	1.85 ± 0.066	0.78 ± 0.076
UGUACU	0.71 ± 0.019	1.933 ± 0.012	1.8501 ± 0.00062	0.66 ± 0.018
AGUGUA	-0.349 ± 0.012	1.9 ± 0.044	1.71 ± 0.035	-0.0909 ± 0.009
AGUGUG	0.0689 ± 0.056	1.8 ± 0.038	1.32 ± 0.038	0.489 ± 0.033
AGUCUG	0.186 ± 0.024	1.9 ± 0.066	1.54 ± 0.029	0.414 ± 0.053
AGUUUA	0.474 ± 0.011	1.93 ± 0.025	1.79 ± 0.027	0.651 ± 0.098
GGGUUG	0.034 ± 0.047	1.92 ± 0.024	1.64 ± 0.073	0.486 ± 0.065
GGGUUA	0.574 ± 0.047	1.99 ± 0.018	1.845 ± 0.013	0.558 ± 0.01
UGGUUC	-0.0246 ± 0.0066	1.96 ± 0.063	1.925 ± 0.018	0.212 ± 0.028
UGGUUU	0.325 ± 0.015	1.95 ± 0.023	1.885 ± 0.005	0.434 ± 0.035
CGUACA	0.575 ± 0.038	1.92 ± 0.061	1.72 ± 0.037	0.49 ± 0.085
CGUACC	0.313 ± 0.054	1.98 ± 0.065	1.89 ± 0.021	0.536 ± 0.047
CGGUGU	0.576 ± 0.076	1.965 ± 0.011	1.85 ± 0.031	0.586 ± 0.029
AGUCAU	0.385 ± 0.052	1.92 ± 0.0085	1.79 ± 0.023	0.509 ± 0.025
UGUUGU	0.254 ± 0.025	1.913 ± 0.0038	1.738 ± 0.011	0.57 ± 0.019
GGUGUG	-0.123 ± 0.13	1.783 ± 0.013	1.29 ± 0.051	0.24 ± 0.004
GGUGUA	0.31 ± 0.061	1.91 ± 0.027	1.765 ± 0.0096	0.381 ± 0.023
AGUGGA	0.318 ± 0.0063	1.9085 ± 0.001	1.62 ± 0.047	0.468 ± 0.084
AGUGGC	-0.495 ± 0.045	1.98 ± 0.033	1.83 ± 0.023	0.0818 ± 0.018
GGUUAG	0.17 ± 0.041	1.726 ± 0.017	1.383 ± 0.0095	0.458 ± 0.03

Variant	FACS-Seq fitted mean (log10) (hypoxanthine [1])	normalized RNA/DNA level with ligand (log10) (hypoxanthine [2])	normalized RNA/DNA level without ligand (log10) (hypoxanthine [3])	FACS-Seq fitted mean (log10) (hypoxanthine [4])
GGUUAC	0.247 ± 0.029	1.96 ± 0.064	1.8 ± 0.066	0.276 ± 0.0034
GGUCUA	0.4701 ± 0.0031	1.896 ± 0.0023	1.9 ± 0.022	0.586 ± 0.022
UGUAGA	0.133 ± 0.057	1.93 ± 0.043	1.55 ± 0.049	0.19 ± 0.011
UGGUCG	-0.282 ± 0.14	1.924 ± 0.012	1.79 ± 0.06	-0.0942 ± 0.036
CGUCAA	0.13 ± 0.025	1.96 ± 0.023	1.807 ± 0.016	0.3 ± 0.077
UGUUUG	-0.153 ± 0.036	2.04 ± 0.037	1.93 ± 0.035	0.0349 ± 0.0062
UUAAUA	0.528 ± 0.021	1.9466 ± 0.0017	1.79 ± 0.029	0.658 ± 0.014
AGGUCG	0.151 ± 0.023	1.861 ± 0.0041	1.53 ± 0.092	0.463 ± 0.049
AGGUGA	0.38 ± 0.046	1.86 ± 0.028	1.46 ± 0.04	0.623 ± 0.045
UGUCGG	0.0812 ± 0.15	1.9 ± 0.04	1.543 ± 0.01	0.151 ± 0.019
UGUCGU	0.313 ± 0.02	1.91 ± 0.036	1.61 ± 0.041	0.591 ± 0.008
AGUCGG	0.0517 ± 0.00086	1.85 ± 0.049	1.48 ± 0.085	0.38 ± 0.078
AGUCGU	0.577 ± 0.17	1.903 ± 0.013	1.68 ± 0.029	0.561 ± 0.15
AGUCGA	0.423 ± 0.022	1.95 ± 0.035	1.61 ± 0.058	0.654 ± 0.0092
GUAAGC	0.302 ± 0.007	1.886 ± 0.015	1.53 ± 0.023	0.667 ± 0.078
GUAAGG	0.181 ± 0.047	1.87 ± 0.042	1.38 ± 0.015	0.408 ± 0.026
GUAAGA	0.291 ± 0.0051	1.89 ± 0.0055	1.73 ± 0.01	0.214 ± 0.029
UGUGGA	-0.645 ± 0.11	1.91 ± 0.06	1.52 ± 0.12	-0.186 ± 0.061
AGUAGA	0.394 ± 0.025	1.83 ± 0.031	1.42 ± 0.025	0.725 ± 0.0082
AGUAGU	0.38 ± 0.09	1.831 ± 0.016	1.45 ± 0.07	0.577 ± 0.036
GGUCAC	0.222 ± 0.021	1.91 ± 0.05	1.825 ± 0.0063	0.633 ± 0.0098
AGUGAU	0.509 ± 0.14	1.91 ± 0.065	1.77 ± 0.047	0.534 ± 0.019
CUAAUG	0.65 ± 0.052	1.922 ± 0.018	1.79 ± 0.068	0.577 ± 0.044
CUAAUC	0.365 ± 0.027	1.94 ± 0.037	1.9 ± 0.043	0.43119 ± 0.00031
